# Measured values reported in publication PMC2193694 (The Journal of Experimental Medicine, 2002).
# T1: B7-H2mIg (extracellular domain of human B7-H2 linked to mouse IgG2a Fc portion) (human, UniProt O75144 19-256)
# T1 sequence: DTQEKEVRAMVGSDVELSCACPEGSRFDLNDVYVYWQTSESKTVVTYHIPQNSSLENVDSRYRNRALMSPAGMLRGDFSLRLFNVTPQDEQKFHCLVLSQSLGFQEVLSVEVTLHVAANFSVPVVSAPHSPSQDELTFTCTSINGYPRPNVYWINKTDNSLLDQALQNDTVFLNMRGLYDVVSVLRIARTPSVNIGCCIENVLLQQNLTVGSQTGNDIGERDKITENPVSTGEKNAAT
# B1: ICOSIg (extracellular domain of human ICOS fused to the CH2-CH3 portion of human IgG1) (Fc fusion)
# chain: EINGSANYEMFIFHNGGVQILCKYPDIVQQFKMQLLKGGQILCDLTKTKGSGNTVSIKSLKFCHSQLSNNSVSFFLYNLDHSHANYYFCNLSIFDPPPFKVTLTGGYLHIYESQLCCQLK
# B2: ICOSIg mutant Q50S (Fc fusion)
# chain: EINGSANYEMFIFHNGGVQILCKYPDIVQSFKMQLLKGGQILCDLTKTKGSGNTVSIKSLKFCHSQLSNNSVSFFLYNLDHSHANYYFCNLSIFDPPPFKVTLTGGYLHIYESQLCCQLK
# B3: ICOSIg mutant F51S (Fc fusion)
# chain: EINGSANYEMFIFHNGGVQILCKYPDIVQQSKMQLLKGGQILCDLTKTKGSGNTVSIKSLKFCHSQLSNNSVSFFLYNLDHSHANYYFCNLSIFDPPPFKVTLTGGYLHIYESQLCCQLK
# B4: ICOSIg mutant F119S (Fc fusion)
# chain: EINGSANYEMFIFHNGGVQILCKYPDIVQQFKMQLLKGGQILCDLTKTKGSGNTVSIKSLKFCHSQLSNNSVSFFLYNLDHSHANYYFCNLSIFDPPPSKVTLTGGYLHIYESQLCCQLK
# B5: ICOSIg mutant Q49S (Fc fusion)
# chain: EINGSANYEMFIFHNGGVQILCKYPDIVSQFKMQLLKGGQILCDLTKTKGSGNTVSIKSLKFCHSQLSNNSVSFFLYNLDHSHANYYFCNLSIFDPPPFKVTLTGGYLHIYESQLCCQLK
# B6: ICOSIg mutant D64S (Fc fusion)
# chain: EINGSANYEMFIFHNGGVQILCKYPDIVQQFKMQLLKGGQILCSLTKTKGSGNTVSIKSLKFCHSQLSNNSVSFFLYNLDHSHANYYFCNLSIFDPPPFKVTLTGGYLHIYESQLCCQLK
# B7: ICOSIg mutant D115S (Fc fusion)
# chain: EINGSANYEMFIFHNGGVQILCKYPDIVQQFKMQLLKGGQILCDLTKTKGSGNTVSIKSLKFCHSQLSNNSVSFFLYNLDHSHANYYFCNLSIFSPPPFKVTLTGGYLHIYESQLCCQLK
# B8: ICOSIg mutant F114S (Fc fusion)
# chain: EINGSANYEMFIFHNGGVQILCKYPDIVQQFKMQLLKGGQILCDLTKTKGSGNTVSIKSLKFCHSQLSNNSVSFFLYNLDHSHANYYFCNLSISDPPPFKVTLTGGYLHIYESQLCCQLK
# B9: ICOSIg homologue replacement mutant RP49-52 (ICOS 49-52 replaced by CD28 49-52) (Fc fusion)
# chain: EINGSANYEMFIFHNGGVQILCKYPDIVREFRMQLLKGGQILCDLTKTKGSGNTVSIKSLKFCHSQLSNNSVSFFLYNLDHSHANYYFCNLSIFDPPPFKVTLTGGYLHIYESQLCCQLK
# B10: ICOSIg mutant K67S (Fc fusion)
# chain: EINGSANYEMFIFHNGGVQILCKYPDIVQQFKMQLLKGGQILCDLTSTKGSGNTVSIKSLKFCHSQLSNNSVSFFLYNLDHSHANYYFCNLSIFDPPPFKVTLTGGYLHIYESQLCCQLK
# B11: ICOSIg mutant K69S (Fc fusion)
# chain: EINGSANYEMFIFHNGGVQILCKYPDIVQQFKMQLLKGGQILCDLTKTSGSGNTVSIKSLKFCHSQLSNNSVSFFLYNLDHSHANYYFCNLSIFDPPPFKVTLTGGYLHIYESQLCCQLK
# Target: T1, B7-H2mIg (extracellular domain of human …)
# Experiment: ELISA
row,Molecule,percentage of B7-H2 binding activity (of ICOSIg)
1,B1,100%
2,B2,6%
3,B3,< 0.1%
4,B4,< 0.1%
5,B5,33%
6,B6,6%
7,B7,< 0.1%
8,B8,< 0.1%
9,B9,9%
10,B10,< 0.1%
11,B11,3%

# Target: B7-H2mIg (extracellular domain of human B7-H2 linked to mouse IgG2a Fc portion) (human) (UniProt O75144)
# Experiment: ELISA
row,Molecule,percentage of B7-H2 binding activity (of ICOSIg)
1,ICOSIg mutant P117S (from UniProt Q9Y6W8 21-140) (Fc fusion),< 0.1%
